The values below come from paper PMC9638930, “Structural basis of flagellar motility regulation by the MogR repressor and the GmaR antirepressor in Listeria monocytogenes” (Nucleic Acids Research, 2022).

The target of series [1] is MogRD with individual mutation of the N154, I155 and F156 residues to alanine. Put plainly: ELISA; wells coated with MogR protein (20 nM); three-fold serially diluted His6-tagged GmaRFL, 2 h at 18°C; detected with anti-His6 antibody. (In an ELISA, binding on a coated surface is turned into a signal by an enzyme label.)
For series [2], the target named is MogRD^S114A/Q117A/N118A/K122A (Listeria monocytogenes) (UniProt P0DJO8). Described as above.
The target of series [3] is His6-tagged GmaRFL protein. In words: ELISA.
Series [4] concerns the target T1, MogR DBD protein (MogRD; residues 1–162) (Listeria monocytogenes, UniProt P0DJO8 1-162).
T1 construct: Monomer by gel filtration; also called MogR^GmaR; source: E. coli BL21 (DE3), purified (Ni-NTA, Mono S or Mono Q ion exchange); for the crystal co-purified with GmaR_(231-637)
T1 sequence: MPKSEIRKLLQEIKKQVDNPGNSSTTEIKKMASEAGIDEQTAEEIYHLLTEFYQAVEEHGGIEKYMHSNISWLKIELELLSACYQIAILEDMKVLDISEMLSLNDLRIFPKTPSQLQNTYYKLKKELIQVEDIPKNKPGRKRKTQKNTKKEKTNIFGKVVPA
Put plainly: ITC; MicroCal iTC200, 18°C; 250 μM MogRD injected into 25 μM GmaRFL or GmaR_(141-637); 20 mM Hepes pH 7.4, 150 mM NaCl, 5 mM βME; one-site binding model. The settings on record: both partners purified. Background: ITC needs no label: the signal is the heat of the interaction.

Series [5] addresses full-length GmaR (GmaRFL; residues 1–637) (Listeria monocytogenes). Put plainly: SEC; Superdex 200 10/300 at room temperature, 20 mM Hepes pH 7.4, 150 mM NaCl, 5 mM βME; GmaRFL, MogRD and their 1:1 molar mixture.
Series [6] has the same target. In words: ITC; MicroCal iTC200, 18°C; 250 μM MogRD injected into 25 μM GmaRFL or GmaR_(141-637); 20 mM Hepes pH 7.4, 150 mM NaCl, 5 mM βME; one-site binding model.
Series [7] has the same target. In words: native gel or EMSA; native PAGE (6% gel, pH 8.8, Coomassie); GmaR incubated with MogR at a defined molar ratio at 18°C for 30 min in 20 mM Hepes pH 7.4, 150 mM NaCl, 5 mM βME. Background: A gel shift assay detects complexes by their altered migration in electrophoresis.
Series [8] addresses T2, MogR1-151 (Listeria monocytogenes, UniProt P0DJO8 1-151).
T2 sequence: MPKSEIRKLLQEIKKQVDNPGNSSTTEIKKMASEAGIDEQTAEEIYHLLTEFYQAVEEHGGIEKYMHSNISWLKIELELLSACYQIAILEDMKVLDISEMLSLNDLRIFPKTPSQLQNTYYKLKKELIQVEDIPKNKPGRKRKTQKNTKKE
In words: EMSA; 20 mM Hepes pH 7.4, 150 mM NaCl, 5 mM bME; FP room temperature with 1 nM dsDNA; EMSA 18 C 30 min (GmaR inhibition assays at room temperature, 10 min, 2:1 MogR:dsDNA). As to conditions: protein: recombinant; tags: N-terminal His6, thrombin site; label: none (ethidium bromide stain); blunt.

Series [9] deals with T3, MogRD Site1-Ala (Listeria monocytogenes, UniProt P0DJO8 1-162, K152A;T153A;N154A;I155A;F156A). The description is as above. The settings on record: protein: recombinant; tags: N-terminal His6, thrombin site; chain copies: 2; label: none (ethidium bromide stain); blunt.
Series [10] has as its target T4, MogRD (MogR DNA-binding domain) (Listeria monocytogenes, UniProt P0DJO8 1-162).
T4 sequence: T1 sequence
Put plainly: EMSA; with GmaRFL pretreated at 37 C 15 min; inhibition lost; 20 mM Hepes pH 7.4, 150 mM NaCl, 5 mM bME; FP room temperature with 1 nM dsDNA; EMSA 18 C 30 min (GmaR inhibition assays at room temperature, 10 min, 2:1 MogR:dsDNA). As to conditions: protein: recombinant; tags: N-terminal His6, thrombin site; label: none (ethidium bromide stain); blunt.

The target of a further series is MogRD SiteMIG-Ala (Listeria monocytogenes, UniProt P0DJO8 1-162, R140A;K141A;R142A;K143A;T144A). In words: EMSA or FP (Supplementary Fig S9; method and label not given in material); 20 mM Hepes pH 7.4, 150 mM NaCl, 5 mM bME; FP room temperature with 1 nM dsDNA; EMSA 18 C 30 min (GmaR inhibition assays at room temperature, 10 min, 2:1 MogR:dsDNA). As to conditions: protein: recombinant; tags: N-terminal His6, thrombin site; chain copies: 2; label: none (ethidium bromide stain); blunt.

Series [11] addresses T4, MogRD (MogR DNA-binding domain). Put plainly: FP; 20 mM Hepes pH 7.4, 150 mM NaCl, 5 mM bME; FP room temperature with 1 nM dsDNA; EMSA 18 C 30 min (GmaR inhibition assays at room temperature, 10 min, 2:1 MogR:dsDNA). As to conditions: protein: recombinant; tags: N-terminal His6, thrombin site; blunt.
In series [12] the target is T2, MogR1-151. The series is described as above. As to conditions: protein: recombinant; tags: N-terminal His6, thrombin site; blunt.
Series [13] has as its target T3, MogRD Site1-Ala. Put plainly: FP; 100 nM MogR with GmaRFL; no inhibition; 20 mM Hepes pH 7.4, 150 mM NaCl, 5 mM bME; FP room temperature with 1 nM dsDNA; EMSA 18 C 30 min (GmaR inhibition assays at room temperature, 10 min, 2:1 MogR:dsDNA). The settings on record: protein: recombinant; tags: N-terminal His6, thrombin site; chain copies: 2; blunt.

For the molecule “His6-tagged GmaRFL protein (natural protein)”, in [1], the fold reduction of GmaRFL-binding activity against MogRD lay within 5 to 6 fold. In series [2], the fold lower GmaRFL-binding activity than MogRD came to 2 fold.
For “MogR DBD protein (MogRD; residues 1–162) (from UniProt P0DJO8) F156A”, in [3] (parent: 220 ± 81), the EC50 – broadly, the concentration that produces a half-maximal response – was 1.42 µM.
Regarding “MogR DBD protein (MogRD; residues 1–162) (from UniProt P0DJO8) I155A”, the EC50 in series [3] (parent: 220 ± 81) is 1.17 µM.
With “MogR DBD protein (MogRD; residues 1–162) (from UniProt P0DJO8) K122A”, in series [3] (parent: 167 ± 18), the 50% effective concentration (EC50) was 0.16 µM.
As for “MogR DBD protein (MogRD; residues 1–162) (from UniProt P0DJO8) K152A”, the EC50 in series [3] (parent: 220 ± 81) came to 0.346 µM.
Take “MogR DBD protein (MogRD; residues 1–162) (from UniProt P0DJO8) N118A”: in series [3] (parent: 167 ± 18), the EC50 amounted to 0.185 µM.
As for “MogR DBD protein (MogRD; residues 1–162) (from UniProt P0DJO8) N154A”, the concentration for a half-maximal effect (EC50) in series [3] (parent: 220 ± 81) was 1.23 µM.
On to “MogR DBD protein (MogRD; residues 1–162) (from UniProt P0DJO8) Q117A”, for which, in series [3] (parent: 167 ± 18), the EC50 was 0.182 µM.
Regarding “MogR DBD protein (MogRD; residues 1–162) (from UniProt P0DJO8) S114A”, the concentration for a half-maximal effect (EC50) in series [3] (parent: 167 ± 18) stood at 0.139 µM.
The same measure, in the same setting: as for “MogR DBD protein (MogRD; residues 1–162) (from UniProt P0DJO8) S114A; Q117A; N118A; K122A”, the figure is 0.342 µM; as for “MogR DBD protein (MogRD; residues 1–162) (from UniProt P0DJO8) T112A”, 0.165 µM.
For the molecule “MogR DBD protein (MogRD; residues 1–162) (from UniProt P0DJO8) T153A”, the EC50 in [3] (parent: 220 ± 81) stood at 0.518 µM.

B1: N-terminally truncated GmaR protein (GmaR_(141-637); residues 141–637) (domain or fragment)
chain: RGVIHEQLEAIDKRPIAAGVAEVKIYHYGYMSEIVEKQDKSDRNLRLLEKEVKNNKNSGFVHFNIGQEMNRLGNKKEALKEFSEAFRLRDHNHYIWAKLSAYHIAELLEQEKRYDESLAIIEEARVIWPNVPEFPLKKANILYVNHQLEDAKEIYQSLLENAAIDYQPIVLYEATNFMPHKMLGTIYLEEKDYTRAMTHFSKAYAENSSDYGVMFQMIMLLSKFHQPKEIFAFMERHHFISSTETGLRLLSMTTQQGYAELSELIVQSLTDVYPPVAEATEVKIATIRNVFPVISESAILFGIKEELIDAADLCLWHYENPQLPIENVMKNSDVGDIYDFIFENGPRISKKRYLFVLERAIALGKGEFADYLLALRNVYHDSINSHIADLFFQYDFADIALDFYNIVDADEVTKQGYINLINYLVDADVLDEALAIAERGIDNFSTDFRFYLWAIKIDTENRANRISEAMDEFPNNRYLAKLLDEVTMLQDTVTNNR
As to B1, in series [4], the Kd (as a rule, a measure of binding affinity in units of concentration) is about 0.022 µM.

B2: MogR DBD protein (MogRD; residues 1–162) (domain or fragment)
chain: T1 sequence
For the molecule B2, the stoichiometry N in series [5] and in series [7] was 1 each time. The molecule also had a Kd in series [6] of 0.013 µM.

B3: operator dsDNA, unlabeled (dsDNA)
DNA 1: ATTTGATTTTTTAAAAAAATGAAGA
DNA 2: TCTTCATTTTTTTAAAAAATCAAAT
With B3, the binding result with MogR1-151 [8] was “binds”; with MogRD Site1-Ala [9] it was “binds”; in series [10], “binds”; with MogRD SiteMIG-Ala it was “no binding”.

B4: operator dsDNA, fluorescein-labeled (dsDNA)
DNA 1: ATTTGATTTTTTAAAAAAATGAAGA
DNA 2: TCTTCATTTTTTTAAAAAATCAAAT
Take B4: the binding result (in [11]; in the series with MogR1-151 [12]; in the series with MogRD Site1-Ala [13]) was “binds” in each case.
